Experimental findings from the RNAGym collection of RNA variant scans (doi:10.7554/elife.80360) are described below.

The labels stand for the following.
B1: HDV Ribozyme (parent)
chain: GGCCGGCAUGGUCCCAGCCUCCUCGCUGGCGCCGGCUGGGCAACAUUCCGAGGGGACCGUCCCCUCGGUAAUGGCGAAUGGGACCCA

Variants of B1 are the subject of the data set. The data set can be described thus: self-cleavage, relative activity (ratio to wild type); higher = more cleavage; co-transcriptional.
As to C30U A78C, the self-cleavage came out at 0.0978. Take C7G A42C: the self-cleavage is 0.208. For C4A G53C the value was 0.344; for C57A G68A, 0.819. For A16U C66G the value was 1.26. Turning to C22U G50U, the self-cleavage was 0.521. For G31A C48A the value was 0.616. For the variant C26U G53C, the self-cleavage worked out at 1.04. In the case of G50C C66G, the self-cleavage came out at 0.912.

Take C4G U69A: the self-cleavage amounted to 0.192. In the case of G40U G82U, the self-cleavage is 0.171.

Regarding A16C C85A, the self-cleavage is 0.875. For G25A G39C the value was 0.0332; for G25A G39U, 0.0244; for A8U C49G, 0.76. The figure for A8U U27A is 0.578; for C4U G31A it is 0.163; for U9G C85U it is 1.14. With C15A G76U, the self-cleavage stood at 0.919.

In the case of C49G A56G, the self-cleavage was determined as 0.917. The figure for C63A U69G is 0.884; for G5A G82A it is 0.0554. As to U47A C62A, the self-cleavage was 1.01. For the variant G31C U37C, the self-cleavage was 0.0707. On to C18A C58G, for which the self-cleavage amounted to 0.

For the variant C21A A83G, the self-cleavage is 0.0519. On to G67C G82C, for which the self-cleavage is 0.289. For A16U C26G the value was 0.831; for G2A A42C, 0.0432; for U9A G10C, 0.875. As for C4A G82C, the self-cleavage stood at 0.0396. The figure for G35C A42U is 0.0339; for G6C C19U it is 0.0773. The figure for A42C C66G is 0.243; for G35A C49A it is 0.591; for G2C G52A it is 0.113. With C44U C86A, the self-cleavage stood at 0.716.

Turning to C44A G54C, the self-cleavage came out at 0.618. Regarding G35C C44A, the self-cleavage was found to be 0.0573. Consider A16C C33U, for which the self-cleavage came to 0.688. The figure for G29C G54A is 0.0773.

On to C48A C86U, for which the self-cleavage worked out at 0.923. For C7U G29A the value was 0.0906; for A77U G81A, 0.185. The figure for C61G C86A is 1.03.

In the case of C18A A78G, the self-cleavage was 0.131. The figure for U37C C41A is 0.929; for G29U U60C it is 0; for G10A A78C it is 0.113.

U20G A45U: the self-cleavage worked out at 0.138. Regarding G6C G39U, the self-cleavage was found to be 0.108.

Take G1C G67U: the self-cleavage amounted to 0.0739. The figure for G6U A56C is 0.665; for C22G it is 0.0832. On to C14A G39U, for which the self-cleavage was found to be 0.222. In the case of C22G A78C, the self-cleavage was found to be 0.131. The figure for A16C G39A is 0.156; for C33G U46C it is 0.185; for A51C C61A it is 1.05. On to G38C C58G, for which the self-cleavage is 0.237.

C19A C44U: the self-cleavage came out at 0.0191. Turning to G10C G53A, the self-cleavage amounted to 0.95. The figure for C24A G31A is 0.0332. Consider C24A U69A, for which the self-cleavage came out at 0.635.

As for G1U G54U, the self-cleavage was found to be 0.358. The figure for G59A C75G is 0.177; for G55C C84U it is 0.817; for A43G G81A it is 0.0941. With C3U G80U, the self-cleavage is 0.114.

As for G39A C49U, the self-cleavage was found to be 0.519.

As to U20A A42C, the self-cleavage was 0.0594.

Consider G39C G76C, for which the self-cleavage worked out at 0.514. For the variant C13U G38U, the self-cleavage stood at 0.149.

C15U C33G: the self-cleavage came out at 0.166. As for A83C C86G, the self-cleavage was found to be 0.254. Turning to C14G C49A, the self-cleavage came out at 0.35. With C18U C84A, the self-cleavage was found to be 0.573. The figure for C21G U47C is 0; for G17A A70U it is 0.616; for C4A G39C it is 0. Regarding A42G A56U, the self-cleavage stood at 0.698. Turning to G11C G81A, the self-cleavage stood at 0.

Regarding C18A C66A, the self-cleavage was 0.208. For G2U U37A the value was 0.0378; for C22G C62G, 0.111; for C44G U47A, 0.653. C15U C64U: the self-cleavage stood at 0.902.

On to A51C G73C, for which the self-cleavage is 0.293. The figure for C7U G31C is 0.727; for C32G G67U it is 0.0831; for G53U C58A it is 1.02. The figure for G74U G82U is 0.281.

Take A8G G81A: the self-cleavage is 0.0875. As for G11A C48U, the self-cleavage came out at 0.326. For C21G C57U the value was 0.138. For C4A U60A, the self-cleavage came out at 0.284. For A51G C58A the value was 0.98; for G6U U69C, 0.655; for G52A A83G, 0.85. C26G C41A: the self-cleavage is 1.04. On to U46G G73U, for which the self-cleavage was 0.514.

Consider G5A U60C, for which the self-cleavage turned out to be 0.353. The figure for G5C G29C is 0.0615. Regarding U60C U65C, the self-cleavage is 1.01. For C24U C32A, the self-cleavage came out at 0.0287. The figure for A70G G73U is 0.138; for U79A A87U it is 0.98; for C26A G53A it is 0.845.

Turning to C7G A83G, the self-cleavage was found to be 0.17. For C24A G52C, the self-cleavage was 0.803. For C19A C86U, the self-cleavage worked out at 0.0674. The figure for G54A U65G is 0.466; for A51U G73A it is 0.607.

For C19U U37G, the self-cleavage was found to be 0.0755.

For the variant C7U G67C, the self-cleavage is 0.529. The figure for C58U C85U is 0.945. The figure for U46A G55A is 0.716; for C36A G40C it is 0.102; for G31C C85U it is 0.299. For A51U G52U the value was 0.889; for G11A A71C, 0.295. As for G29A A78G, the self-cleavage was determined as 0.0804.

As for C4A C57A, the self-cleavage was found to be 0.541. For G68A C86A the value was 0.822; for G25C G74A, 0.0639. For G17U A87C the value was 0.389; for G55U A87U, 1.1; for G38U U65A, 0.292. For C21U C32A the value was 0.0674; for C22G G74C, 0. For U12G C22G, the self-cleavage came out at 0. Turning to C7A G28U, the self-cleavage turned out to be 0.0361. For C3A G6U the value was 0.0492; for C4U A56C, 0.522. U60G A71U: the self-cleavage amounted to 0.918. On to C21U C30U, for which the self-cleavage is 0.0755. Consider C7A A51C, for which the self-cleavage was determined as 0.609.

On to A78G U79G, for which the self-cleavage is 0.268.

For the variant U20A G25C, the self-cleavage turned out to be 0.151. For C44G C64G the value was 0.678; for C63G G81U, 0.375; for G50C C84U, 0.554.

For the variant G53A U69A, the self-cleavage is 1.03. As for G38A G52U, the self-cleavage was 0.245. For G2U G80A the value was 0.0496. For G39C U46C the value was 0.214. For U47G G74A the value was 0.435; for C22G A43U, 0.115. For the variant C44U U79A, the self-cleavage stood at 0.688. For the variant C4U C24G, the self-cleavage turned out to be 0.0678. For G11U U65G the value was 0.542; for C3U G54A, 0.633.

Regarding C33G U37A, the self-cleavage was 0.225.

On to U9G G38U, for which the self-cleavage is 0. The figure for C41G C75A is 0.353; for G10A A16C it is 0.867.

For the variant C61A G67A, the self-cleavage came out at 0.9.

Regarding A42G U65A, the self-cleavage is 0.703. Turning to C26U C63A, the self-cleavage was 0.969.

Turning to C21A G54U, the self-cleavage amounted to 0.0773. The figure for G34U U65G is 0.146; for C4A C48G it is 0.148. The figure for G6U G54C is 0.383; for C61G G74U it is 0.466; for C30G A87U it is 0.14. For G39A A83G the value was 0.507; for G28A G59U, 0.117.
